Measurements as given in publication PMC3945839 (Protein Science : A Publication of the Protein Society, 2014).
Where no end group is shown, it is not given here. The star is where a group is joined. BMPH = NNC(=O)CCN1C(=O)CC(*)C1=O

T1: Methionine aminopeptidase from E. coli (E. coli, UniProt P0AE18 1-264)
T1 sequence: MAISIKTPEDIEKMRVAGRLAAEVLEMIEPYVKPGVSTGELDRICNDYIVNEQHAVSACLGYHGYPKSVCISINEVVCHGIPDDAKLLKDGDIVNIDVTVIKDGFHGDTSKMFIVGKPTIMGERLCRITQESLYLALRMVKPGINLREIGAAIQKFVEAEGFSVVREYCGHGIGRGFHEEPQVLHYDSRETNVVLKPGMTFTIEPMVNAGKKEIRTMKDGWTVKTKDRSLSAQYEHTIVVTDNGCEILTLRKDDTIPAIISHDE


What was measured:
Assay in all cases: BLI
[1] = biological target: N-terminal leucine peptide (X-GMMSC, X = leucine)
[2] = biological target: N-terminal methionine peptide (X-GMMSC, X = methionine)
[3] = biological target: T1, Methionine aminopeptidase from E. coli

| Molecule | Kd [1] [nM] | koff [1] [s⁻¹] | kon [1] [M⁻¹ s⁻¹] | Kd [2] [µM] | koff [2] [s⁻¹] | kon [2] [M⁻¹ s⁻¹] | Kd [3] [µM] | koff [3] [s⁻¹] | kon [3] [M⁻¹ s⁻¹] |
| --- | --- | --- | --- | --- | --- | --- | --- | --- | --- |
| eLAP, designed leucine aminopeptidase derived from E. coli methionine aminopeptidase (from UniProt P0AE18 4-264) (enzyme) | 826 | 0.00142 | 1720 | 19.1 | 0.00408 | 214 |  |  |  |
| LGMMSC(BMPH) [N-terminal leucine peptide (X-GMMSC, X = leucine)] |  |  |  |  |  |  | 54.2 | 0.0147 | 271 |
| MGMMSC(BMPH) [N-terminal methionine peptide (X-GMMSC, X = methionine)] |  |  |  |  |  |  | 2.65 | 0.00489 | 1850 |
